Source: publication PMC2891831, “Insight into the Mechanisms of Adenovirus Capsid Disassembly from Studies of Defensin Neutralization” (PLoS Pathogens, 2010)

Experiments:
HAdV-D serotypes = experiment: Infection assay (hexon staining), HAdV species D; assay type: cell-based, human adenovirus; conditions: 15 µM HD5, A549 cells, hexon staining at ~48 h, vs. no defensin; upper limit 200%
Description: (§1) To determine whether sensitivity to α-defensins is a general property of HAdVs, serotypes representative of HAdV species A–F were tested for infectivity in the presence of 15 µM HD5 or HNP1 (Figure 1). Wild type HAdVs rather than vectors were used for these studies, and infectivity was assessed by staining for hexon production. […] These studies indicate that sensitivity to α-defensins is species specific. In addition, particular HAdV serotypes are not equally sensitive to all defensins, indicating defensin sequence specificity as well.
(§2) Figure 1 Sensitivity to neutralization by alpha-defensins is AdV species specific. HAdVs were incubated with 15 µM HD5 (A) or HNP1 (B) and assessed for infectivity on A549 cells. Data are the mean of the percent infectivity compared to control cells infected with each virus in the absence of defensin for at least three independent experiments ± SD. The upper limit for quantification of this assay is 200%. […]
(§3) Prior to use in this assay, each virus stock was titrated on A549 cells. […] In parallel, wells were infected with two-fold serial dilutions of each virus to establish a standard curve for quantification with an upper limit of 200%. […] Total well fluorescence above background was quantified with ImageJ software. For each virus, samples were quantified by nonlinear regression against the standard curve using Prism software (GraphPad Software, Inc., La Jolla, CA).

GYAR virus = experiment: Infection assay, GYAR virus; assay type: cell-based, human adenovirus; conditions: 5 µM HD5, A549 cells, at least three independent experiments
Description: (§4) Figure 6 Neutralization determinants are located in fiber and penton base. A) Schematic of chimeric viruses. Capsid proteins are depicted in the order in which they are encoded in the virus genome for HAdV-5 (white) and HAdV-19c (grey). The variable residues in fiber (GYAR and DTET) are indicated for each construct. B) Each of the chimeric viruses was incubated with 5 µM (grey) or 10 µM (black) HD5 and assessed for infectivity on A549 cells. Data are the mean of the percent infectivity compared to control cells infected with each virus in the absence of defensin for at least three independent experiments ± SD. The upper limit for quantification of this assay is 200%.
(§5) We then combined the GYAR substitution with the PB substitution in a single construct (PB/GYAR).
as §3, with “cells. A virus concentration was chosen to produce 50–70% maximal signal in the absence of defensin as described below.” for “cells.”

[1] = system: HAdV-5/HAdV-19c chimeric viruses; experiment: FACS-based infection assay of virus chimeras at 100-fold lower moi; assay type: cell-based, human adenovirus; conditions: data not shown
Source text: as §5

PB/GYAR = experiment: Infection assay, PB/GYAR virus chimera; assay type: cell-based, human adenovirus
Description: as §4, §5
as §3, with “cells. A virus concentration was chosen to produce 50–70% maximal signal in the absence of defensin as described below.” for “cells.”

HAdV-5 capsid = conditions: previous observation; cited from earlier work
Source text: Therefore, we considered which of the multiple binding sites visualized by cryoEM might lead to enhanced virion stability. We reasoned that we might find a negatively charged region o ... || Based on our combined functional and structural studies, we propose a model for neutralization in which α-defensins bind to critical capsid determinants at the point of contact between fiber and penton base, thereby preventing fiber release. One implication of this model is that fiber dissociation is absolutely required for subsequent uncoating events. This model cannot distinguish between the dissociation of fiber and penton base from the capsid independently or together as a complex. In the first case, defensin may actively lock the fiber onto the penton base. Alternatively, HD5 may obstruct ...

HAdV-7p = experiment: Virus-defensin binding assay, HAdV-7p; design: species or system human adenovirus; conditions: 20 µM HD5, mean of two or three independent experiments ± SD
Source text: (§6) Figure 2 HD5 binding to HAdV. A) HD5 binding to a representative defensin-sensitive serotype (HAdV-5) was quantified by an equilibrium-binding assay. Data are the mean of the number of HD5 molecules bound per virion at the indicated HD5 concentrations from at least three independent experiments ± SD. Binding curves were fitted using Prism software. B) Binding of HD5 to additional defensin-sensitive (HAdV-7p) and resistant (HAdV-19c, -25p, -51p) serotypes expressed as a percent of HD5 bound to HAdV-5. Data are the mean of two or three independent experiments ± SD.
(§7) We assessed HD5 binding to additional serotypes after incubation with 20 µM HD5 (Figure 2B). The sensitive serotype HAdV-7p bound 69.3±15.9% of the amount of HD5 bound to HAdV-5 in parallel samples; whereas, the corresponding values for the resistant serotypes HAdV-19c, -25p, and -51p were 32.5±7.5%, 3.3±5.8%, and 24.6±12.0%, respectively.
(§8) To measure HD5 binding to HAdV-5 and -51, HD5 was serially diluted in PBS and mixed with 5 µg purified virus. […] The other half of each sample was used to make a standard curve for quantification. […] Virus bands were quantified using ImageQuant NT software (GE Healthcare). […] The amount of HD5 in the centrifuged samples was then quantified against the standard curve using Prism software. […]

HAdV-F serotypes = experiment: Infection assay (hexon staining), HAdV species F; assay type: cell-based, human adenovirus; conditions: 15 µM HD5, A549 cells, hexon staining at ~48 h, vs. no defensin; upper limit 200%
Description: as §1, §2, §3

Ad5.F35 = experiment: Sensitivity of Ad5.F35 to HD5; assay type: cell-based, human adenovirus; conditions: data not shown; compared with HAdV-5 and HAdV-35
HAdV-19c = experiment: Virus-defensin binding assay, HAdV-19c; design: species or system human adenovirus
Source text: as §6, §7, §8

B1: HD5: human alpha-defensin; synthetic, obtained from Peptides International; three disulfide bonds (PDB 1ZMP) (peptide, UniProt Q01523 20-94, looked up)
Defensin alpha 5: ESLQERADEATTQKQSGEDNQDLAISFAGNGLSALRTSGSQARATCYCRTGRCATRESLSGVCEISGRLYRLCCR
modifications: Defensin-5
With B1 the “sensitivity to neutralization (infectivity)” value (HAdV-D serotypes) was “completely resistant to HD5-mediated neutralization and, in most cases, infection is actually enhanced”, the “sensitivity to HD5 neutralization compared to HAdV-5” value (GYAR virus) was “less sensitive” and the “sensitivity phenotype of chimeras in FACS-based assay” value [1] was “Equivalent results”. For the same molecule, the “sensitivity to HD5 neutralization” value (PB/GYAR; 5 µM and 10 µM HD5, A549 cells, at least three independent experiments) was “completely resistant to neutralization”, the “defensin-resistance at higher HD5 concentration” value (PB/GYAR; 20 µM HD5, data not shown) was “confirmed the defensin-resistance” and the “effect on capsid proteins upon exposure to heat” value (HAdV-5 capsid) was “stabilizes the capsid and prevents dissociation of capsid proteins, including fiber, upon exposure to heat”. For the same molecule, the “HD5 bound, percent of HD5 bound to HAdV-5” value (HAdV-7p) was 69.3±15.9%, the “sensitivity to neutralization (infectivity)” value (HAdV-F serotypes) was “completely resistant to HD5-mediated neutralization and, in most cases, infection is actually enhanced” and the “sensitivity of Ad5.F35 to HD5” value (Ad5.F35) was “comparable to that of HAdV-5 and HAdV-35”. The “HD5 bound, percent of HD5 bound to HAdV-5” value (HAdV-19c; 20 µM HD5, mean of two or three independent experiments ± SD) was 32.5±7.5% and the “level of HD5 binding (in words)” value (HAdV-19c; HAdV-19c) was “only a low level of binding”.
